This assay concerns the target Flag-53BP1 (human, UniProt Q12888 1-1972). As to the kind of experiment: pull-down.

Sequence of Flag-53BP1 (Q12888 whole entry): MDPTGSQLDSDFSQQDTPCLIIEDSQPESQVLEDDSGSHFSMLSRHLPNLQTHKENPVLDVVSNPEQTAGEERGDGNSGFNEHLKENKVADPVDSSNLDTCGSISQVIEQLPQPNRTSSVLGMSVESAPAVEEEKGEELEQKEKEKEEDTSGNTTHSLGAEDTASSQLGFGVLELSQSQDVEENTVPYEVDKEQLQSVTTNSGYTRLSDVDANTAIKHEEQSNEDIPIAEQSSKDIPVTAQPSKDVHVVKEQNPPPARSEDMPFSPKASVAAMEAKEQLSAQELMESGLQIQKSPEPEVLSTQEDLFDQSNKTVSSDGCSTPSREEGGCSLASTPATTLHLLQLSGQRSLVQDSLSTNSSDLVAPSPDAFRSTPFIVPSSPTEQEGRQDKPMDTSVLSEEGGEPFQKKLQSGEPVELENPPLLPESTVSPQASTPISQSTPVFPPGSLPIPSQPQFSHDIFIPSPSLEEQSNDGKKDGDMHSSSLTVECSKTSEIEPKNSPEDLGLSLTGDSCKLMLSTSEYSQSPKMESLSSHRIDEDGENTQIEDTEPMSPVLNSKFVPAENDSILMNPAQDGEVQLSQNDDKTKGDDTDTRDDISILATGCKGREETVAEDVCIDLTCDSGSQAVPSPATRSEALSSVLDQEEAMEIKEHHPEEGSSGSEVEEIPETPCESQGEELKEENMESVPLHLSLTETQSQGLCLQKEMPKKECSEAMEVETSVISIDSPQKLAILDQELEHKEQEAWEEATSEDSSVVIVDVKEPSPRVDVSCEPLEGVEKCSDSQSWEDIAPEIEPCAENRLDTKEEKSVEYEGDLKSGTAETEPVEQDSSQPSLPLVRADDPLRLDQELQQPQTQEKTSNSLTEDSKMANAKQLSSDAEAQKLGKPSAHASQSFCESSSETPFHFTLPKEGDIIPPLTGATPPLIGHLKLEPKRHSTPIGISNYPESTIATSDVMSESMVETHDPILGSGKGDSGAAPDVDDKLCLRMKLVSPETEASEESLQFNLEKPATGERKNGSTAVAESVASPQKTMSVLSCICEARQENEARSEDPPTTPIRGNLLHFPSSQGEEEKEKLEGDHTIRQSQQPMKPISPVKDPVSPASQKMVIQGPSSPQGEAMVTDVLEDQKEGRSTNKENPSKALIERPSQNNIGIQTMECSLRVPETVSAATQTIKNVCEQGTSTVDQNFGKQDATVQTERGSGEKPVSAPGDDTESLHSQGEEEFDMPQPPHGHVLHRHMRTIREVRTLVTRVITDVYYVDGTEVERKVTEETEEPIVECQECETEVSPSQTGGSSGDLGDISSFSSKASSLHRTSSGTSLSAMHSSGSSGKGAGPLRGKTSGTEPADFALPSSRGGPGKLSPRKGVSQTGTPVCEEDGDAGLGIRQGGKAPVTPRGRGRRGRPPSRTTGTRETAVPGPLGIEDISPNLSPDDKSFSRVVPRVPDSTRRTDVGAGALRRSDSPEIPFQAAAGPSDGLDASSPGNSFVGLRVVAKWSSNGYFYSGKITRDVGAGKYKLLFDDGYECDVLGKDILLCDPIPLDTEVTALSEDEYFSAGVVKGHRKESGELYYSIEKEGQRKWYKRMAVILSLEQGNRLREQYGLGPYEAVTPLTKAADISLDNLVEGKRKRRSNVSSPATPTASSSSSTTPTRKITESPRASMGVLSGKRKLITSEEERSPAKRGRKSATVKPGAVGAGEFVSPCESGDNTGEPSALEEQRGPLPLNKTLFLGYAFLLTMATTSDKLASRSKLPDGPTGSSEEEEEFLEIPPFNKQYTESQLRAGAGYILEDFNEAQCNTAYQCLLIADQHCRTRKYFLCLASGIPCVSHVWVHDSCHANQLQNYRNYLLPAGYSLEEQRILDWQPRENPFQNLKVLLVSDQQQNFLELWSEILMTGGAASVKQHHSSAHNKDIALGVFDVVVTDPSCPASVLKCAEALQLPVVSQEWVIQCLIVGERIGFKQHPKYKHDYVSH

B1: GST-TPX2 (natural protein)
chain: MSQVKSSYSYDAPSDFINFSSLDDEGDTQNIDSWFEEKANLENKLLGKNGTGGLFQGKTPLRKANLQQAIVTPLKPVDNTYYKEAEKENLVEQSIPSNACSSLEVEAAISRKTPAQPQRRSLRLSAQKDLEQKEKHHVKMKAKRCATPVIIDEILPSKKMKVSNNKKKPEEEGSAHQDTAEKNASSPEKAKGRHTVPCMPPAKQKFLKSTEEQELEKSMKMQQEVVEMRKKNEEFKKLALAGIGQPVKKSVSQVTKSVDFHFRTDERIKQHPKNQEEYKEVNFTSELRKHPSSPARVTKGCTIVKPFNLSQGKKRTFDETVSTYVPLAQQVEDFHKRTPNRYHLRSKKDDINLLPSKSSVTKICRDPQTPVLQTKHRARAVTCKSTAELEAEELEKLQQYKFKARELDPRILEGGPILPKKPPVKPPTEPIGFDLEIEKRIQERESKKKTEDEHFEFHSRPCPTKILEDVVGVPEKKVLPITVPKSPAFALKNRIRMPTKEDEEEDEPVVIKAQPVPHYGVPFKPQIPEARTVEICPFSFDSRDKERQLQKEKKIKELQKGEVPKFKALPLPHFDTINLPEKKVKNVTQIEPFCLETDRRGALKAQTWKHQLEEELRQQKEAACFKARPNTVISQEPFVPKKEKKSVAEGLSGSLVQEPFQLATEKRAKERQELEKRMAEVEAQKAQQLEEARLQEEEQKKEELARLRRELVHKANPIRKYQGLEIKSSDQPLTVPVSPKFSTRFHC
Consider B1, for which the binding result is “binds”.
